The text below walks through data of US12559863B2, “Macrocyclic modulators of disease associated protein misfolding and aggregation” (RESQ BIOTECH, priority 2017, dated 2026).

For this assay, the target named is T1, Aβ42-GFP (Homo sapiens, UniProt P05067).
T1 construct: a chimeric fusion of the human Aβ(1-42) peptide (Aβ42) with GFP; expressed in transfected cells; host or cells: E. coli BL21(DE3)
The assay is described as follows: High-throughput sequencing of pSICLOPPS vectors isolated after bacterial sorting for enhanced Aβ42-GFP fluorescence. The note with it: for Reads/Total TXXXR reads (%): relative to total TXXXR reads; for Normalized read number (%): Table 3, cyclo-TXXR tetrapeptides. The text has this:
On the other hand, very few bioactive sequences resembling AβC5-34 should exist. […] The peptide-encoding vectors contained in these clones were isolated and the peptide-encoding region of approximately 5.6 million of these plasmids was sequenced using an Ion Torrent high-throughput sequencing platform. […] First, pentapeptides were the dominant peptide species within the sorted pool (FIG. 12D), in agreement with previous observations (FIG. 8G). Second, the most prevalent motif among the selected pentapeptide sequences were TXXXR pentapeptides (˜47% of the selected pentapeptide-encoding pSICLOPPS plasmids; ˜42% of the unique selected pentapeptide sequences) (Table 1), in accordance with previous observations (FIG. 8G). […] At position 2, Thr, Ala, and Val were preferred, while aromatic residues (Phe, Trp, Tyr) were completely excluded from the selected TXXXR peptide pool, in full agreement with our site-directed mutagenesis studies. At the highly variable position 3, the complete absence of the negatively charged amino acids Glu and Asp among the selected sequences was notable (FIG. 12E). […] It is noteworthy, that Lys and Gln residues were practically absent from all positions, while the β sheet-breaking amino acid Pro that is typically included in designed peptide-based inhibitors of amyloid aggregation appeared with strikingly low frequencies (FIG. 12E).
Electrocompetent E. coli BL21(DE3) cells (Novagen, USA) carrying either the expression vector pETSOD1(A4V)-GFP, which produces SOD1(A4V)-GFP under control of the strong bacteriophage T7 promoter, or pETAβ42-GFP, which produces Aβ42-GFP under control of the T7 promoter, were co-transformed with the combined pSICLOPPS-NuX1X2X3-X5 vector library. Approximately 10^8 transformants carrying both the vector library and either pETSOD1(A4V)-GFP or pETAβ42-GFP vectors were harvested, pooled together, and grown in Luria-Bertani (LB) liquid medium containing either 0.005% (pETSOD1(A4F)-GFP) or 0.002% (pETAβ42-GFP) L-arabinose—the inducer of cyclic peptide production—at 37° C. with shaking. When the optical density at 600 nm (OD600) of the bacterial culture was about 0.5, 0.01 (pETSOD1(A4F)-GFP) or 0.1 (pETAβ42-GFP) mM isopropyl-β-D-thiogalactoside (IPTG) was added to the medium to induce overexpression of the reporter. […] The isolated cells were re-grown and screened for additional rounds in an identical manner until the desired enrichment in high-fluorescence clones was achieved.
For the characterization of the initial libraries, a combined pSICLOPPS-NuX1X2X3-X5 vector library was prepared containing approximately equal amounts of each one of the tetra-, penta- and hexapeptide sub-libraries. These samples were digested with NcoI and BsrGI and the resulting ˜250 bp product that contained the variable peptide-encoding region was isolated. High-throughput sequencing analysis was performed using an Ion Torrent high-throughput sequencing platform. From the obtained data, all the sequences with mismatches outside of the variable peptide-encoding region were removed, and only the 12-, 15- or 18-bp-long peptide-encoding sequences were subjected to further analysis. The libraries of the selected cyclic peptides that enhance either SOD1(A4V)-GFP or Aβ42-GFP fluorescence were sequenced in a similar manner, with the only exception being that all sequences including stop codons were discarded from subsequent analysis.

The mark [1] stands for this setting: after the second round of bacterial sorting.
Setting [2] is: after the second round of bacterial sorting, relative to total pentapeptide reads.
[3] abbreviates: after the second round of bacterial sorting, relative to total peptide reads.
Setting [4] is: high-throughput sequencing of isolated pSICLOPPS-NuX1X2X3-X5 vectors after the second round of bacterial sorting for enhanced Aβ42-GFP fluorescence, selected cyclo-TXXXR pentapeptides.
The mark [5] stands for this setting: after the second round of bacterial sorting for enhanced Aβ42-GFP fluorescence.
[6] abbreviates: after the second round of bacterial sorting for enhanced Aβ42-GFP fluorescence, relative to total pentapeptide reads.
Where [7] appears, read: after the second round of bacterial sorting for enhanced Aβ42-GFP fluorescence, relative to total peptide reads.
Where [8] appears, read: pSICLOPPS-NuX1X2X3-X5 vectors after the second round of bacterial sorting for enhanced Aβ42-GFP fluorescence.
The mark [9] stands for this setting: Table 4, hexapeptides, after second round of sorting.

As for AβC5-245 (TTRFR; cyclic), under setting [1], the “Reads/Total TXXXR reads (%)” value was 0.019%. The “Reads/Total pentapeptide reads (%)” value under setting [2] turned out to be 0.009%. In addition, the “Reads/Total peptide reads (%)” value under setting [3] is 0.008%. Moreover, the Number of reads under setting [4] is reported as 364.
As to AβC5-176 (TAGWR; cyclic), the “Reads/Total TXXXR reads (%)” value under setting [1] was determined as 0.050%. For the same substance, under setting [2], the “Reads/Total pentapeptide reads (%)” value came out at 0.023%. The “Reads/Total peptide reads (%)” value under setting [3] was 0.021%. In addition, the Number of reads under setting [4] is 945.
On the same counts, the results for AβC5-366 (TTMVR; head-to-tail cyclic) are 0.006%, 0.003%, 0.002% and 105.
Take AβC5-481 (TVFGR; cyclic pentapeptide): the “Reads/Total TXXXR reads (%)” value under setting [5] is given as 0.003%. Also, under setting [6], the “Reads/Total pentapeptide reads (%)” value was 0.001%. Besides, under setting [7], the “Reads/Total peptide reads (%)” value was determined as 0.001%. Also, the Number of reads under setting [8] came to 50.
With AβC5-129 (TTLFR; cyclic), the “Reads/Total TXXXR reads (%)” value under setting [1] is recorded as 0.138%. For the same substance, the “Reads/Total pentapeptide reads (%)” value under setting [2] came to 0.065%. Further, the “Reads/Total peptide reads (%)” value under setting [3] is 0.058%. Moreover, the Number of reads under setting [4] is given as 2,630.
As to AβC5-441 (TAWDR; cyclic pentapeptide), under setting [5], the “Reads/Total TXXXR reads (%)” value came to 0.003%. The “Reads/Total pentapeptide reads (%)” value under setting [6] is 0.002%. Under setting [7], the “Reads/Total peptide reads (%)” value came to 0.001%. Further, under setting [8], the Number of reads is listed as 61.
For the substance TPLWFN [AβC6-40], under “Table 4”, the “Reads/Total hexapeptide reads (%)” value stood at 0.070% and the “Reads/Total peptide reads (%)” value worked out at 0.007%. Moreover, the Number of reads under setting [9] turned out to be 316.
In the case of AβC5-362 (TTWDR; head-to-tail cyclic), the “Reads/Total TXXXR reads (%)” value under setting [1] is 0.006%. For the same substance, the “Reads/Total pentapeptide reads (%)” value under setting [2] turned out to be 0.003%. Also, under setting [3], the “Reads/Total peptide reads (%)” value came out at 0.002%. Under setting [4], the Number of reads is given as 107.
For AβC5-73 (TTRDR; cyclic pentapeptide) the same measures were 0.678%, 0.318%, 0.285% and 12,894.
In the case of cyclo-TDQR (cyclic) [AβC4B-9], the “Normalized read number (%)” value is 2.09%.
On to AβC5-473 (THVAR; cyclic pentapeptide), for which the “Reads/Total TXXXR reads (%)” value under setting [5] worked out at 0.003%. The “Reads/Total pentapeptide reads (%)” value under setting [6] was determined as 0.001%. The “Reads/Total peptide reads (%)” value under setting [7] is recorded as 0.001%. For the same substance, the Number of reads under setting [8] came to 51.
Take AβC5-294 (TTPHR; cyclic): the “Reads/Total TXXXR reads (%)” value under setting [1] was determined as 0.011%. Further, the “Reads/Total pentapeptide reads (%)” value under setting [2] is reported as 0.005%. Moreover, under setting [3], the “Reads/Total peptide reads (%)” value came to 0.005%. In addition, the Number of reads under setting [4] amounted to 207.
Turning to TPIVFD [AβC6-36], where the note is “Table 4”, the “Reads/Total hexapeptide reads (%)” value was found to be 0.085% and the “Reads/Total peptide reads (%)” value is recorded as 0.008%. Also, the Number of reads under setting [9] is on record as 384.
AβC5-315 (TTSER; head-to-tail cyclic): under setting [1], the “Reads/Total TXXXR reads (%)” value is reported as 0.008%. The “Reads/Total pentapeptide reads (%)” value under setting [2] was determined as 0.004%. Also, the “Reads/Total peptide reads (%)” value under setting [3] is recorded as 0.003%. For the same substance, the Number of reads under setting [4] stood at 158.
For AβC5-385 (TTLYR; head-to-tail cyclic), under setting [5], the “Reads/Total TXXXR reads (%)” value stood at 0.005%. The “Reads/Total pentapeptide reads (%)” value under setting [6] was 0.002%. Further, the “Reads/Total peptide reads (%)” value under setting [7] is given as 0.002%. For the same substance, the Number of reads under setting [8] was found to be 90.
Turning to AβC5-475 (TTGDR; cyclic pentapeptide), the “Reads/Total TXXXR reads (%)” value under setting [5] amounted to 0.003%. For the same substance, under setting [6], the “Reads/Total pentapeptide reads (%)” value is 0.001%. Also, under setting [7], the “Reads/Total peptide reads (%)” value came to 0.001%. The Number of reads under setting [8] worked out at 51.
As to TPGWFD [AβC6-55], for the setting “Table 4”, the “Reads/Total hexapeptide reads (%)” value is given as 0.040% and the “Reads/Total peptide reads (%)” value was 0.004%. Besides, the Number of reads under setting [9] amounted to 180.
As for AβC5-395 (TTQHR; head-to-tail cyclic), under setting [5], the “Reads/Total TXXXR reads (%)” value is reported as 0.004%. Also, the “Reads/Total pentapeptide reads (%)” value under setting [6] amounted to 0.002%. In addition, the “Reads/Total peptide reads (%)” value under setting [7] was found to be 0.002%. For the same substance, the Number of reads under setting [8] is 85.
For the substance AβC5-472 (TMYAR; cyclic pentapeptide), under setting [5], the “Reads/Total TXXXR reads (%)” value turned out to be 0.003%. For the same substance, the “Reads/Total pentapeptide reads (%)” value under setting [6] is given as 0.001%. For the same substance, under setting [7], the “Reads/Total peptide reads (%)” value was determined as 0.001%. The Number of reads under setting [8] worked out at 51.
In the case of AβC5-147 (TAMHR; cyclic), the “Reads/Total TXXXR reads (%)” value under setting [1] was 0.085%. For the same substance, the “Reads/Total pentapeptide reads (%)” value under setting [2] came out at 0.040%. Besides, the “Reads/Total peptide reads (%)” value under setting [3] is 0.036%. The Number of reads under setting [4] is 1,611.
On the same counts, the results for AβC5-344 (TTPGR; head-to-tail cyclic) are 0.007%, 0.003%, 0.003% and 125.
As to AβC5-262 (TTSSR; cyclic), the “Reads/Total TXXXR reads (%)” value under setting [1] is 0.015%. The “Reads/Total pentapeptide reads (%)” value under setting [2] is 0.007%. Further, under setting [3], the “Reads/Total peptide reads (%)” value is on record as 0.006%. The Number of reads under setting [4] is 286.
For cyclo-SHSPT [AβC5-387], for the setting “Table 2”, the “Reads/Total SASPT-like reads (%)” value is 0.337%, the “Reads/Total pentapeptide reads (%)” value is recorded as 0.002% and the “Reads/Total peptide reads (%)” value was found to be 0.002%. Besides, the Number of reads (Table 2, after second round of sorting) worked out at 89.
Consider cyclo-TRGR [AβC4-34], for which the “Normalized read number (%)” value was 0.3047%.
As for AβC5-126 (TTLLR; cyclic), under setting [1], the “Reads/Total TXXXR reads (%)” value stood at 0.159%. Further, the “Reads/Total pentapeptide reads (%)” value under setting [2] is reported as 0.074%. In addition, under setting [3], the “Reads/Total peptide reads (%)” value is given as 0.067%. Also, the Number of reads under setting [4] is recorded as 3,016.
On to AβC5-391 (TLLIR; head-to-tail cyclic), for which the “Reads/Total TXXXR reads (%)” value under setting [5] amounted to 0.005%. Moreover, under setting [6], the “Reads/Total pentapeptide reads (%)” value is 0.002%. Further, under setting [7], the “Reads/Total peptide reads (%)” value stood at 0.002%. In addition, the Number of reads under setting [8] worked out at 88.
Consider AβC5-121 (TIKDR; cyclic), for which the “Reads/Total TXXXR reads (%)” value under setting [1] stood at 0.209%. Under setting [2], the “Reads/Total pentapeptide reads (%)” value is 0.098%. Also, the “Reads/Total peptide reads (%)” value under setting [3] is 0.088%. Moreover, the Number of reads under setting [4] is 3,970.
For AβC5-15 (TANVR; cyclic) the same measures were 2.516%, 1.179%, 1.056% and 47,855.
In the case of AβC5-162 (TSVWR; cyclic), under setting [1], the “Reads/Total TXXXR reads (%)” value was found to be 0.058%. Also, the “Reads/Total pentapeptide reads (%)” value under setting [2] is reported as 0.027%. The “Reads/Total peptide reads (%)” value under setting [3] is given as 0.024%. Also, the Number of reads under setting [4] was 1,094.
On the same counts, the results for AβC5-13 (TALDR; cyclic) are 3.301%, 1.547%, 1.386% and 62,792.
With AβC5-459 (TTAAR; cyclic pentapeptide), the “Reads/Total TXXXR reads (%)” value under setting [5] came out at 0.003%. Also, under setting [6], the “Reads/Total pentapeptide reads (%)” value is given as 0.001%. For the same substance, under setting [7], the “Reads/Total peptide reads (%)” value was found to be 0.001%. In addition, the Number of reads under setting [8] was determined as 55.
